The assay addresses trimeric H5-S·Tag (ectodomain of H5 hemagglutinin of A/duck/Viet Nam/TG24-01/2005 (H5N1) fused to GCN4-pII and S·Tag) (influenza A virus A/duck/Viet Nam/TG24-01/2005 (H5N1) | not stated | bovine).
“S·Protein-GCN4 (S·Protein fused to the dimerization domain GCN4 wild-type) (from UniProt P61823 47-150)” registered a hemagglutination titer (HAU) of plant extract after co-expression in plants of 2 HAU.
Substance “S·Protein-TP (S·Protein of bovine ribonuclease A fused to the tailpiece of mouse IgM) (from UniProt P61823 47-150)” came in with a hemagglutination titer (HAU) of plant extract after co-expression in plants of 256 HAU.
For “S·Protein-pII (S·Protein fused to the trimerization domain GCN4-pII) (from UniProt P61823 47-150)”, the hemagglutination titer (HAU) of plant extract after co-expression in plants came to 0 HAU.
For “wild-type S·Protein (bovine pancreatic ribonuclease A residues 21-124) (from UniProt P61823 47-150) (domain or fragment)” the value was 4 HAU.

The values above are taken from PMC5607582.
